Assay results from the supplement of paper PMC7125110.
± gives the standard error. Fewer inactive variants are shown than the library holds.

B1: glmS ribozyme (parent)
chain: AUAAAAGCGCCAGAACUACAGAAAUGUAGUUGACGAGGAGGAGGUUUAUCGAAUUUUCGGCGGAUGCCUCCAAA

Key:
Details in all cases: with glucosamine-6-phosphate
[1] = variants of: B1; test: self-cleavage kobs at 160 uM GlcN6P; higher = faster cleavage; RNA array
Method in brief: (§1)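 Ribozyme variants carrying barcodes were transcribed in situ on sequenced MiSeq chips by E. coli RNA polymerase and tracked at 37 °C with a hybridised Cy3 probe. They were exposed to 40 μM to 10 mM glucosamine-6-phosphate in HEPES/KCl/Mg(OAc)2 buffer. kobs came from exponential decay fits of normalised per-tile medians, and kcat and KM from weighted Michaelis–Menten fits.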

[2] = variants of: B1; test: self-cleavage kobs at 640 uM GlcN6P; higher = faster cleavage; RNA array
Method in brief: as §1

[3] = variants of: B1; test: self-cleavage kobs at 2500 uM GlcN6P; higher = faster cleavage; RNA array
Method in brief: as §1

[4] = variants of: B1; test: self-cleavage kobs at 10000 uM GlcN6P; higher = faster cleavage; RNA array
Method in brief: as §1

Row | Variant | self-cleavage kobs at 160 uM GlcN6P [1] [s⁻¹] | self-cleavage kobs at 640 uM GlcN6P [2] [s⁻¹] | self-cleavage kobs at 2500 uM GlcN6P [3] [s⁻¹] | self-cleavage kobs at 10000 uM GlcN6P [4] [s⁻¹]
1 | C11A A39C C70G | < 1e-05 | < 1e-05 | < 1e-05 | –
2 | C11A A15U C70G | 4.95e-05 ± 1.9e-05 | 0.000432 ± 0.00013 | – | –
3 | A12U G51A U55C | < 1e-05 | – | – | –
4 | A15C C16A C67U | 4.39e-05 ± 2.1e-05 | 0.000115 ± 2.9e-05 | 0.000111 ± 4e-05 | –
5 | C11U G32U A42U | < 1e-05 | – | < 1e-05 | –
6 | A15U G37U | < 1e-05 | – | – | < 1e-05
7 | A12G G35U A53U | < 1e-05 | – | – | < 1e-05
8 | C11A A42C | < 1e-05 | < 1e-05 | < 1e-05 | –
9 | G29C C34G U55C | < 1e-05 | – | – | –
10 | C11G A14G G29A | < 1e-05 | – | – | –
11 | A15C G29U C67A | 9.38e-05 ± 3.4e-05 | 0.000156 ± 2.9e-05 | 0.000163 ± 4.2e-05 | –
12 | A15G G38A G60U C70G | < 1e-05 | – | < 1e-05 | –
13 | A12G G51A | < 1e-05 | < 1e-05 | – | < 1e-05
14 | G13A G43A | < 1e-05 | < 1e-05 | – | < 1e-05
15 | G29A G60A | < 1e-05 | < 1e-05 | – | –
16 | C10U A39U A64U C70G | < 1e-05 | < 1e-05 | – | –
17 | A12G C34A A36G | < 1e-05 | – | < 1e-05 | –
18 | A12G G38U U57C | < 1e-05 | < 1e-05 | – | < 1e-05
19 | C11G A15G U65C | < 1e-05 | – | – | –
20 | A14U U47C U49A | < 1e-05 | – | – | –
21 | C11A A42G A53C | < 1e-05 | – | – | –
22 | C10U A12G G35C | < 1e-05 | – | – | –
23 | C10U G40C G44U | < 1e-05 | – | < 1e-05 | < 1e-05
24 | A14C G38C | < 1e-05 | < 1e-05 | < 1e-05 | < 1e-05
25 | C10U C11G A33U | < 1e-05 | < 1e-05 | < 1e-05 | < 1e-05
26 | A14G U54C G60C A64G C70G | < 1e-05 | < 1e-05 | – | –
27 | G29C A33C C61A | < 1e-05 | – | – | –
28 | C16G G43A | < 1e-05 | < 1e-05 | – | –
